The results in this text go back to US20230212294A1 (MINGHUI PHARMACEUTICAL SHANGHAI, published 2023).

In experiment [1] the target is T1, B7-H3 endogenously expressed on human tumor cell lines (human, UniProt Q5ZPR3 29-534).
T1 sequence (looked up): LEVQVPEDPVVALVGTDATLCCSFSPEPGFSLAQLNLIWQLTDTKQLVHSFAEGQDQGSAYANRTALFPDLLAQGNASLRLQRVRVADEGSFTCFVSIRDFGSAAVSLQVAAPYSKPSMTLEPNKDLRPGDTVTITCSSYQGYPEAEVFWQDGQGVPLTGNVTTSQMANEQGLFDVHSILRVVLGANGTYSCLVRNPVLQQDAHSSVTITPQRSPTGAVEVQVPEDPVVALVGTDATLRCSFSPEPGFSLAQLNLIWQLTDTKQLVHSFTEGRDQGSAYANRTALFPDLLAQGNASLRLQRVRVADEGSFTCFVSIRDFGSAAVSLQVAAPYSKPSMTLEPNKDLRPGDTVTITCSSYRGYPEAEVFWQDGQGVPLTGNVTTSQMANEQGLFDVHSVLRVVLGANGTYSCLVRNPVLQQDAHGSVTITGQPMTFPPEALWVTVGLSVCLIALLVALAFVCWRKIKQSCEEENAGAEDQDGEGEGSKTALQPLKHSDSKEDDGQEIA
The experiment in a line: cell-based or functional assay.

Experiment [2] addresses T1, B7-H3 endogenously expressed on human …. The experiment in a line: cell-based or functional assay. The source holds these as a separate data set.
The next experiment concerns the target T2, monkey B7-H3-his (monkey).
T2 chain: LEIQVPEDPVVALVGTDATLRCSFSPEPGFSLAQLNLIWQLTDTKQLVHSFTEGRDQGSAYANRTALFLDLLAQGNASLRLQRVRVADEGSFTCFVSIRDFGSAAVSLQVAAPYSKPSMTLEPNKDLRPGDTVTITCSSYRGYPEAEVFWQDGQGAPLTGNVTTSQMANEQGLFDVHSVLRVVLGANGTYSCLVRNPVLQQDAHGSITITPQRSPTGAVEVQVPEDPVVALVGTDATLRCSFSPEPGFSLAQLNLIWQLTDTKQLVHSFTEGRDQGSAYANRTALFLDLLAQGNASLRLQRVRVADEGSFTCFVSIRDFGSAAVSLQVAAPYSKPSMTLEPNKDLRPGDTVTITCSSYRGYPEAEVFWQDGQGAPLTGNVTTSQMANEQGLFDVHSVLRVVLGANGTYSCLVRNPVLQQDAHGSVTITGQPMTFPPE
The experiment in a line: ELISA, antigen coated at 2 µg/mL. On the procedure: (§1) Human B7-H3-his, mouse B7-H3-his and monkey B7-H3-his were diluted to 2 μg/mL with PBS, and added to the ELISA plate at 30 μL per well. The ELISA plate was then incubated in a refrigerator at 4° C. for 16-20 hours. The next day, the ELISA plate was washed once with a lotion (PBS containing 0.05% Tween 20) and then blocked with 5% skim milk powder for 1 hour. After blocking, the ELISA plate was washed once, then added with gradient-diluted anti-B7-H3 antibodies, and incubated at room temperature for 1 h. After incubated, the ELISA plate was washed three times, then added with goat anti-human HRP-labeled secondary antibody, and incubated at room temperature for 1 h. After incubated, the ELISA plate was washed three times, then developed for 5-15 minutes by adding TMB, and finally terminated with 2M sulfuric acid. The data were recorded on the microplate reader.
On the technique in general: In an ELISA, binding on a coated surface is turned into a signal by an enzyme label.

The target in the next experiment is T3, mouse B7-H3-his (mouse, UniProt Q8VE98 29-244, limits assumed).
T3 construct: His-tagged recombinant protein coated on the ELISA plate; not shown: his tag
T3 sequence (looked up): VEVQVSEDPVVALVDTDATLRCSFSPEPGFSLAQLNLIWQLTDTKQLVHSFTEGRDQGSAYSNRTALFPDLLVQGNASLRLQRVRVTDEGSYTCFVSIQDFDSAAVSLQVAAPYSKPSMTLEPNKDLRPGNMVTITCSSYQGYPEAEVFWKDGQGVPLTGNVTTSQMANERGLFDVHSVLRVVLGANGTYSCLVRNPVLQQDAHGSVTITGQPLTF
In words: ELISA, mouse B7-H3-his coated at 2 µg/mL. On the procedure:
as §1

The target of experiment [3] is T1, B7-H3 endogenously expressed on human …. The experiment in a line: flow cytometry on NCI-H322 cells. On the procedure: (§2) CHOK cells overexpressing B7-H3 or NCI-H322 cells endogenously expressing B7-H3 were added to a round-bottom 96-well plate at 100,000 cells per well, centrifuged to remove the supernatant, and then added with a gradient-diluted anti-B7-H3 antibody and incubated at 4 degrees for 1 h. After incubation, the cells were washed twice with FACS buffer (PBS containing 2% FBS), then added with fluorescent-labeled goat anti-human secondary antibody (Abcam, ab98596) and incubated for 0.5 h. After incubation, the cells were washed twice with FACS buffer, then resuspended with FACS buffer and detected with flow cytometry (Beckman, cytoFlex).

The target in experiment [4] is T4, B7-H3 on CHOK cells overexpressing B7-H3.
T4 sequence (Q5ZPR3 whole entry, species assumed, looked up): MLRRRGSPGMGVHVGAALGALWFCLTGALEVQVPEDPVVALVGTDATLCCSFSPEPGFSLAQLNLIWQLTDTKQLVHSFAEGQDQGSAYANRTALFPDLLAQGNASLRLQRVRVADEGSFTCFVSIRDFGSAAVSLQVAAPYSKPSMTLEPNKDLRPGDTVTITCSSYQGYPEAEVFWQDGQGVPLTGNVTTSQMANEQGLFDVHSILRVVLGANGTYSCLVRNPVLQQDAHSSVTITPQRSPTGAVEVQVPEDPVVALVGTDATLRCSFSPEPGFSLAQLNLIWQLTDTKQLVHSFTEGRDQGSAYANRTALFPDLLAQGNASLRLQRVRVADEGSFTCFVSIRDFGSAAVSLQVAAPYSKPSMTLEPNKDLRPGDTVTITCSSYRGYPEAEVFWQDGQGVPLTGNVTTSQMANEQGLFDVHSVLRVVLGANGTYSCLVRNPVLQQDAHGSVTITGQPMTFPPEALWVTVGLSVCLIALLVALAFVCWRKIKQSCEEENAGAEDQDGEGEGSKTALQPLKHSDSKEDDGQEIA
The experiment in a line: cell-based or functional assay.

For experiment [5] the target is unchanged. In words: flow cytometry on CHOK cells overexpressing B7-H3. As to the method: as §2
Background: In flow cytometry, cells or beads pass a laser one at a time.

Changes are numbered by the printed parent chain.

B1: IL-P7-C05-H4L3-MMAE (antibody, V domains shown)
VH: EVQLVESGGGLVQPGGSLRLSCAASGFTFSSYAMSWVRQAPGKGLELVAAINSNGGSTYYADSVKGRFTISRDNAKNTLYLQMSSLRAEDTAVYYCTRNEEFRRGLAYWGQGTLVTVSS
VL: DIQMTQSPSSLSASVGDRVTITCRASENIYSNLAWYQQKPGKAPKLLIYAASNLQSGVPSRFSGSGSGTDYTLTISSLQPEDFATYYCQHFWGTPPWTFGQGTKLEIK
modifications: MMAE (Monomethyl auristatin E) coupled to the antibody; linker, site and drug load not stated
As for B1, in experiment [1], the “Inhibitory IC50 against proliferation of BxPC-3 cells, 5 days, CellTiter-Glo” value stood at 5.5 nM and the “Inhibitory IC50 against proliferation of Calu-6 cells, 5 days, CellTiter-Glo” value was found to be 0.3 nM. Further, in experiment [2], the “Inhibitory IC50 against proliferation of BxPC-3 cells, 72 h, CellTiter-Glo” value came to 7.7 nM and the “Inhibitory IC50 against proliferation of NCI-H1975 cells, 72 h, CellTiter-Glo” value was determined as 7.4 nM.

B2: IL-P6-C08 (antibody, V domains shown)
VH: EVKLVESGGDLVKPGGSLKLSCAASGFTFSSYGMSWVRQTSDKRLEWVATISGGGRYTYYPDSVKGRFTISRDSSKNTLYLQMSSLKSEDTAMYYCVRHYDGYLDYWGLGTTLTVSS
VL: DIQMIQSPASLSASVGETVTITCRASENIYSYLAWYQQKQGKSPQLLVYNAKTLAEGVPSRFSGSGSGTQFSLKINSLQPEDFGSYYCQHHYGTPPYTFGGGTKLEIK
notes: Unhumanized murine variable regions; full-length antibody
Turning to B2, the EC50 was determined as 0.0541 µg/mL with monkey B7-H3-his and 0.158 µg/mL in experiment [3]. The binding result with mouse B7-H3-his is given as “no binding”.

B3: IL-P7-A06 (antibody, V domains shown)
VH: QVQLQQSGPEVVRPGVSVKISCKGSGYTFTDYAMHWVKQSHAKSLEWIGIINTYNGNTNYNQKFKGKATMTVDKSSSTAYMEFARLTSEDSAIYYCARSRGPWDRYFDVWGAGTTVTVSS
VL: DIVMTQSQKFMSTSVGDRVSVTCKASQNVGTAVAWYQQKPGQSPKLLIYSASNRYTGVPDRFTGSGSGTDFTLTISNMQSEDLADYFCQQYSSYPFTFGSGTKLEIK
notes: as for B2
On to B3, for which, in experiment [4], the “IC50 of CHO endocytosis experiment (toxin-labeled secondary antibody, cell viability)” value amounted to 0.0086 µg/mL. For the same molecule, in the experiment with mouse B7-H3-his, the binding result is recorded as “no binding”. In addition, the EC50 in experiment [3] is 0.072 µg/mL; in experiment [5], 0.278 µg/mL.

B4: IL-P5-B01 (antibody, V domains shown)
VH: EVQLQESGPSLVKPSQTLSLTCSVTGDSITSGSWNWIRKFPGNKLEYMGYISYSGSIYYNPSLKSRISITRDTSKNQYYLQLNSVTTEDTATYYCARGNPAWFAYWGQGTLVTVSA
VL: B3 VL with A32N, L46A, N53Y, T56S, M78V, D85E, S92N, F96Y, S100G
notes: as for B2
On to B4, for which the EC50 was found to be 0.115 µg/mL in the experiment with monkey B7-H3-his, 0.131 µg/mL in experiment [3] and 0.43 µg/mL in experiment [5]. Besides, in experiment [4], the “IC50 of CHO endocytosis experiment (toxin-labeled secondary antibody, cell viability)” value came out at 0.0028 µg/mL. In addition, the binding result with mouse B7-H3-his is recorded as “no binding”.

A word on the EC50: it is the midpoint of the concentration-response curve.
